In US20250163182A1 (Janssen / Centocor, published 2025):

T1: cynomolgus monkey ENPP3 (cynomolgus monkey, UniProt A0A2K5TKP4 46-874)
T1 construct: also called cyno ENPP3
T1 sequence: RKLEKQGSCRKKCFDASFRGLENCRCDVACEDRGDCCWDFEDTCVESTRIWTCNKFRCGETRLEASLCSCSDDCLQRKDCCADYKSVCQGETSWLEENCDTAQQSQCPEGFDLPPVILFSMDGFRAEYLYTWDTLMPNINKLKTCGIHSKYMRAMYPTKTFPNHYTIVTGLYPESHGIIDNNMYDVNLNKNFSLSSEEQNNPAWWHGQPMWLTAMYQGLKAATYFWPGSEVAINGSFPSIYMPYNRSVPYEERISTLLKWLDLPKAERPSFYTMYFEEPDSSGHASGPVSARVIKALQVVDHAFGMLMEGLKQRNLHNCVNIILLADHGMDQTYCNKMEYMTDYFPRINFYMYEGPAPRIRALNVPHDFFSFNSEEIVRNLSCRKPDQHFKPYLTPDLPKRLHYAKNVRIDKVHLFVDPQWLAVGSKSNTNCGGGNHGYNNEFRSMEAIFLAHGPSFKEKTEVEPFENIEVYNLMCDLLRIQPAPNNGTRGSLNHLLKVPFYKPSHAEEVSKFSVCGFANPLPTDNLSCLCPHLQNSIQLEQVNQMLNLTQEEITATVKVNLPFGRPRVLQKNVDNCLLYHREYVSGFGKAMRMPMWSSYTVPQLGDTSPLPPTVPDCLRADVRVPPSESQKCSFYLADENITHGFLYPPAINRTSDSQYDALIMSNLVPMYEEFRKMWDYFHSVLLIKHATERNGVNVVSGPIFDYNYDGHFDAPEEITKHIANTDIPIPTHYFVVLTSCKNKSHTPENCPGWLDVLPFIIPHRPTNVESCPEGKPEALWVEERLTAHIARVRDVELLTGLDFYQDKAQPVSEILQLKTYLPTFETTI

T2: human ENPP3 (human, UniProt O14638 46-875, limits assumed)
T2 construct: neither the construct nor the method is stated; also called ectonucleotide pyrophosphatase/phosphodiesterase family member 3
T2 sequence (looked up): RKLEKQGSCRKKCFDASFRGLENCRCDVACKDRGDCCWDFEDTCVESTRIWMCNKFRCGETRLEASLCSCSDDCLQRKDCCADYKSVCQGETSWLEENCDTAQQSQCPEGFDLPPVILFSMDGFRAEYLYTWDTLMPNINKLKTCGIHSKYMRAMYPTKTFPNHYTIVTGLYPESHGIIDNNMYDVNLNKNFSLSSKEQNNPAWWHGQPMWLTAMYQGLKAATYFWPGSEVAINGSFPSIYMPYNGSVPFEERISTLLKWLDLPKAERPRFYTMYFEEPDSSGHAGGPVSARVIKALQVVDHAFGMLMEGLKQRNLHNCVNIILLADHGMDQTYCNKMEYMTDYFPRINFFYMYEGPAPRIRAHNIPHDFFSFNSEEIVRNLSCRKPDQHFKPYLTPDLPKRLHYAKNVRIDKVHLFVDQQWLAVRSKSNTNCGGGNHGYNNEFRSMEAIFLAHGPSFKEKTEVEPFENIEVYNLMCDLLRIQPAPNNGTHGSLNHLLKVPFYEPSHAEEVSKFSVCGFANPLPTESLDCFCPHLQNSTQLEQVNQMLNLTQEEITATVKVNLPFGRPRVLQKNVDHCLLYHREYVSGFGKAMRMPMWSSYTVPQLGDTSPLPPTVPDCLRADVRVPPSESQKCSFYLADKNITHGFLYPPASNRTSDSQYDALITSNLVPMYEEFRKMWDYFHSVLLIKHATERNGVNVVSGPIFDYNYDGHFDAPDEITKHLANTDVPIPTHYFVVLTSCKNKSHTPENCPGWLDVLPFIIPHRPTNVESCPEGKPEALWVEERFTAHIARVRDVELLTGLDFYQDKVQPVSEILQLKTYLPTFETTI

T3: human ENPP3 on cells (human, UniProt O14638 1-875)
T3 construct: whole, on cells; also called ENPP3 on A704, VMRCRCW, HepG2, TUHR4TKB, TUHR10TKB; CHO-K1 ENPP3 OE
T3 sequence (looked up): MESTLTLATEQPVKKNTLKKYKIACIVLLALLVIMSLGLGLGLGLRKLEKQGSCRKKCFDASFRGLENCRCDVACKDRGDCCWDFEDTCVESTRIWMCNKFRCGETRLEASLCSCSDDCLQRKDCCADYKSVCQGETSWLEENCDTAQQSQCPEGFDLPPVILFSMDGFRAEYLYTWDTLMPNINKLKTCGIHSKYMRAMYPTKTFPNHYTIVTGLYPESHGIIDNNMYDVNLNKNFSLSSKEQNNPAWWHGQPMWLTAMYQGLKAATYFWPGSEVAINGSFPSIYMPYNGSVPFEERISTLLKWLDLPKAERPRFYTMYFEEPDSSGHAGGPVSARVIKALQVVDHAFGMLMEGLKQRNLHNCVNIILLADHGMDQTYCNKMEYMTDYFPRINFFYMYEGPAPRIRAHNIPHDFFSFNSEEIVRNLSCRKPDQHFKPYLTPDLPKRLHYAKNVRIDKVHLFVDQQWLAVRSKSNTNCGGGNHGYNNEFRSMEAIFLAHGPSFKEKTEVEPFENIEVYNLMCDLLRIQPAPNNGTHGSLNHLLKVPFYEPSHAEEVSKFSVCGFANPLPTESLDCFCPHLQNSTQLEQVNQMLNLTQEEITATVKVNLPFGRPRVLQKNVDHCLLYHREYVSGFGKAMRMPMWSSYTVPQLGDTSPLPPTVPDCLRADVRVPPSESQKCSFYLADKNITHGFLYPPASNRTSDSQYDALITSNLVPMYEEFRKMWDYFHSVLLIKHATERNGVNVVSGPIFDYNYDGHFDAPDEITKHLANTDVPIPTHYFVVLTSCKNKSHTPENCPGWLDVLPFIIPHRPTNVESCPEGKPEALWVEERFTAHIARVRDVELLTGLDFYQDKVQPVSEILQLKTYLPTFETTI

T4: ENPP1 on CHOK1 cells (UniProt P22413 1-925, limits assumed)
T4 construct: whole, on cells; also called ectonucleotide pyrophosphatase/phosphodiesterase family member 1; CHO ENPP1 OE
T4 sequence (looked up): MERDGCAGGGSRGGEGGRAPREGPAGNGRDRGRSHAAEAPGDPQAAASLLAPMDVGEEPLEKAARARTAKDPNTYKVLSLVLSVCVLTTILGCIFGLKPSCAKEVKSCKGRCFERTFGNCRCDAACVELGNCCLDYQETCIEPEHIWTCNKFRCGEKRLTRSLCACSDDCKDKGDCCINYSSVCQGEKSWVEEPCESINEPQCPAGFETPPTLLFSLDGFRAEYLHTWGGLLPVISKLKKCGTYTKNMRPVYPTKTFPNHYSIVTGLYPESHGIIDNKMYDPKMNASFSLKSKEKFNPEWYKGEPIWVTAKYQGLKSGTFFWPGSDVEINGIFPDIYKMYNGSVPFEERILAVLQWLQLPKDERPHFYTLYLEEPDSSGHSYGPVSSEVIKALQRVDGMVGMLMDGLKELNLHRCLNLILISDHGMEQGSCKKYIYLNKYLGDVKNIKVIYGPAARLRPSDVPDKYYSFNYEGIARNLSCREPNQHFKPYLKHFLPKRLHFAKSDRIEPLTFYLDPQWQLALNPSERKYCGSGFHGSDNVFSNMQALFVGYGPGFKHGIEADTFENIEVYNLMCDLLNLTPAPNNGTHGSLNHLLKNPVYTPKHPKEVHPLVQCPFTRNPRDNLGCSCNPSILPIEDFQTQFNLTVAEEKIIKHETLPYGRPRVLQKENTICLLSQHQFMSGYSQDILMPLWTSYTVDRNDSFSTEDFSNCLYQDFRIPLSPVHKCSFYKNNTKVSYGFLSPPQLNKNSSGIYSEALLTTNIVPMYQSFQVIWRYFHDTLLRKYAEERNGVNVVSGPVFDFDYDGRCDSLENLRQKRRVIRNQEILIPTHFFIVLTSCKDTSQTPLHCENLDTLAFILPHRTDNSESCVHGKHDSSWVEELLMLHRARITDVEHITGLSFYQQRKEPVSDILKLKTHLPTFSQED


Experiments:
cynomolgus monkey ENPP3 = target: T1, cynomolgus monkey ENPP3; test: binding affinity to cyno ENPP3; method not stated
human ENPP3 = target: T2, human ENPP3; test: binding affinity to human ENPP3; method not stated
human ENPP3 on cells = target: T3, human ENPP3 on cells; test: flow cytometry on CHO cells overexpressing ENPP3
Protocol: To evaluate the specificity of binders to ENPP3 compared to other ENPP family members, cell binding was assessed on CHOK1 cells overexpressing ENPP1, ENPP2, or ENPP3 (FIG. 9).

ENPP2 on CHOK1 cells = ENPP2 on CHOK1 cells (UniProt Q13822 36-863); test: flow cytometry on CHO cells overexpressing ENPP2
ENPP1 on CHOK1 cells = target: T4, ENPP1 on CHOK1 cells; test: flow cytometry on CHO cells overexpressing ENPP1

Row | Binder | Kd (cynomolgus monkey ENPP3) [nM] | Kd (human ENPP3) [nM] | EC50 (read off the curve) (human ENPP3 on cells) [µg/mL] | binding result (ENPP2 on CHOK1 cells) | binding result (ENPP1 on CHOK1 cells)
1 | NPP3B61 (antibody, V domains shown, mAb from Ablexis Kappa mice) VH: QVQLQESGPGLVRPSETLSLTCTVSGGSISSYYWSWIRQPAGKGLEWIGRIYTTGRIYTSGYTNYNPSLKSRVTMSIDTSKIQFSLRLNSVTAADTAVYWCARGGELFTDGFDIWGQGTMVTVSS VL: EIVMTQSPGTLSLSPGERATLSCRASQSVISTYLAWYQQNPGQAPRLLIYGASSRATGIPDRFSGSGSGTDFTLTISRLEPEDFAVYYCQQYDTSPITFGQGTRLEIK | 109 | 0.443 |  |  | 
2 | NPP3B62 (antibody, V domains shown, mAb from Ablexis Kappa mice) VH: QVQLQESGPGLVRPSETLSLTCTVSGGSISSYYWSWIRQPAGKGLEWIGRIYTTGRIYTSGYTNYNPSLKSRVTMSIDTSKIQFSLRLNSVTAADTAVYWCARGGELFTDGFDIWGQGTMVTVSS VL: EIVMTQSPGTLSLSPGERATLSCRASQSVISTYLAWYQQNPGQAPRLLIYGASSRATGIPDRFSGSGSGTDFTLTISRLEPEDFVVYYCQQYDTSPITFGQGTRLEIK | 12 | 0.258 |  |  | 
3 | NPP3B101 (antibody, V domains shown, mAb from Ablexis Kappa mice) VH: QVQLQESGPGLVKTSETLSLTCTVSGGSISSHYWSWIRQPPGKGLEWIGNIFYSGSTNYNPSLKSRVTMSVDTSKNHFSLKLISVTTADTAIYYCARHDHVWFDPWGQGTLVTVSS VL: EIVLTQSPGTLSVFPGERATLSCRASQSVSRNLVWYQQKPGQAPRLLIYGASTRATGIPDRFSGSGSGTEFTLTISSLQSEDFAVYYCQQYNNWPPWTFGQGTKVEIK | 9.58 | 0.193 |  |  | 
4 | NPP3B232 (bispecific antibody, IgG1, Fab-IgG1 (hole) plus scFv-Fc in VL-linker-VH-Fc orientation) VH: QVQLQESGPGLVKPSETLSLTCTVSGGSISNYYWSWIRQPAGKGLEWIGRIYASGSTNYNPSLKSRVTMSVDTSKNQFSLRLRSVTATDTAVYYCAREGYSSTLYDNAFDFWGQGTMVTVSS VL: DIQMTQSPSSVSASVGGRVTITCRASQGISTWLAWYQQKPGKAPKLLIYAASSLQSGVPSRFSGSGSGTDFTLTISSLQPEDFATYYCQQANSFPLTFGGGTKVEIK scFv: EIVLTQSPATLSASPGERVTLSCSASSSVSYMNWYQQKPGQAPRRWIYDSSKLASGVPARFSGSGSGRDYTLTISSLEPEDFAVYYCQQWSRNPPTFGGGTKVEIKGGSEGKSSGSGSESKSTGGSQVQLVQSGAEVKKPGSSVKVSCKASGYTFTRSTMHWVKQAPGQGLEWIGYINPSSAYTNYNQKFQGRVTLTADKSTSTAYMELSSLRSEDTAVYYCASPQVHYDYAGFPYWGQGTLVTVSS |  |  | ~0.5 | no binding (tested: Log(ug/mL) about 1.1 (about 12 ug/mL)) | no binding (tested: Log(ug/mL) about 1.1 (about 12 ug/mL))
5 | NPP3B239 (bispecific antibody, IgG1, Fab-IgG1 (hole) plus scFv-Fc in VL-linker-VH-Fc orientation; also called NPP3B239.003) VH: EVQLVESGGGLVKPGGSLRLSCAASGFIFSDYSMNWVRQAPGKGLEWVSSISSGSSYIYYADSLKGRFTISRDNAKNSLYLQMSSLRAEDTAVYYCVRGLDYFDYWGQGALVTVSS VL: DIQMTQSPSFLSASVGDRVTITCRASQDISNYLAWYQQKPGRAPKLLIYVASTLQSGVPSRFSGSGSGTEFTLTISSLQPEDFATYYCQQLNSYPRTFGQGTKVEIK scFv: EIVLTQSPATLSASPGERVTLSCSASSSVSYMNWYQQKPGQAPRRWIYDSSKLASGVPARFSGSGSGRDYTLTISSLEPEDFAVYYCQQWSRNPPTFGGGTKVEIKGGSEGKSSGSGSESKSTGGSQVQLVQSGAEVKKPGSSVKVSCKASGYTFTRSTMHWVKQAPGQGLEWIGYINPSSAYTNYNQKFQGRVTLTADKSTSTAYMELSSLRSEDTAVYYCASPQVHYDYAGFPYWGQGTLVTVSS |  |  | ~1 | no binding (tested: Log(ug/mL) about 1.1 (about 12 ug/mL)) | no binding (tested: Log(ug/mL) about 1.1 (about 12 ug/mL))
